From the supplement of paper PMC9112550, “Optimization of the antimicrobial peptide Bac7 by deep mutational scanning” (BMC Biology, 2022)

system: Escherichia coli TOP10; assay: shrunken log2 fold change of peptide-encoding DNA abundance (4.5 h post-induction vs induction); higher = less antimicrobial activity (less host growth inhibition); conditions: time post-induction: 4.5 h; library: site-saturation at positions 5, 18, 19, 20
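Further: peptides expressed intracellularly from a pBAD plasmid library in pooled LB shake-flask culture, induced with 0.3% L-arabinose, DNA abundance read by NGS, three biological replicates, DESeq2 with apeglm shrinkage.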

Sequence | shrunken log2 fold change
RRIRDRPPRLPRPRPRPHSIPRP | 0.0345
RRIRPRPPRLPRPRPRPIWKPRP | 0.0296
RRIRVRPPRLPRPRPRPDKYPRP | -0.277
RRIRFRPPRLPRPRPRPRRGPRP | 0.435
RRIRPRPPRLPRPRPRPEVYPRP | 0.0493
RRIRTRPPRLPRPRPRPCAIPRP | 0.00368
RRIRYRPPRLPRPRPRPVIPPRP | -0.0128
RRIRCRPPRLPRPRPRPCWYPRP | 0.0339
RRIRNRPPRLPRPRPRPPDWPRP | 0.641
RRIRTRPPRLPRPRPRPCMTPRP | -0.111
RRIRFRPPRLPRPRPRPPMIPRP | -0.224
RRIRYRPPRLPRPRPRPNCLPRP | -0.942
RRIRYRPPRLPRPRPRPPTKPRP | 0.444
RRIRQRPPRLPRPRPRPPTSPRP | -0.00728
RRIRWRPPRLPRPRPRPRWGPRP | 0.534
RRIRFRPPRLPRPRPRPLHFPRP | 0.0202
RRIRKRPPRLPRPRPRPATWPRP | 0.573
RRIRYRPPRLPRPRPRPSTWPRP | -0.647
RRIRHRPPRLPRPRPRPHSPPRP | -0.468
RRIRWRPPRLPRPRPRPNAMPRP | 0.123
RRIRARPPRLPRPRPRPFAYPRP | -0.289
RRIRQRPPRLPRPRPRPTYGPRP | -0.293
RRIRLRPPRLPRPRPRPSLFPRP | -0.373
RRIRFRPPRLPRPRPRPPHDPRP | 0.336
RRIRMRPPRLPRPRPRPTNQPRP | 0.279

Sequence | shrunken log2 fold change
RRIRIRPPRLPRPRPRPYVRPRP | -0.199
RRIRGRPPRLPRPRPRPGTQPRP | 0.143
RRIRARPPRLPRPRPRPRNEPRP | 0.557
RRIRKRPPRLPRPRPRPMMWPRP | 0.373
RRIRLRPPRLPRPRPRPWFFPRP | -0.155
RRIRNRPPRLPRPRPRPPVCPRP | 0.126
RRIRIRPPRLPRPRPRPIYLPRP | -0.811
RRIRIRPPRLPRPRPRPAEQPRP | -0.0532
RRIRVRPPRLPRPRPRPTIFPRP | -0.469
RRIRARPPRLPRPRPRPGQWPRP | 0.466
RRIRPRPPRLPRPRPRPCCDPRP | 0.249
RRIRLRPPRLPRPRPRPAMGPRP | 0.248
RRIRCRPPRLPRPRPRPTQCPRP | 0.0468
RRIRNRPPRLPRPRPRPSMIPRP | -0.427
RRIRDRPPRLPRPRPRPACAPRP | 0.705
RRIRSRPPRLPRPRPRPGQHPRP | 0.178
RRIRNRPPRLPRPRPRPWNVPRP | 0.00489
RRIRVRPPRLPRPRPRPERNPRP | -0.323
RRIRFRPPRLPRPRPRPGVCPRP | 0.307
RRIRLRPPRLPRPRPRPMVEPRP | -0.0178
RRIRKRPPRLPRPRPRPQICPRP | -0.0742
RRIRMRPPRLPRPRPRPQIDPRP | 0.141
RRIRPRPPRLPRPRPRPFPDPRP | 0.00657
RRIRERPPRLPRPRPRPHIAPRP | -0.099
RRIRFRPPRLPRPRPRPQPPPRP | 0.94

Sequence | shrunken log2 fold change
RRIRNRPPRLPRPRPRPMDNPRP | -0.105
RRIRERPPRLPRPRPRPRSWPRP | 0.0987
RRIRIRPPRLPRPRPRPDGTPRP | -0.303
RRIRMRPPRLPRPRPRPRELPRP | 1.54
RRIRPRPPRLPRPRPRPFTAPRP | -0.332
RRIRQRPPRLPRPRPRPYCRPRP | -0.00101
RRIRHRPPRLPRPRPRPDNNPRP | -0.453
RRIRWRPPRLPRPRPRPAQRPRP | 0.418
RRIRKRPPRLPRPRPRPNYRPRP | 0.123
RRIRQRPPRLPRPRPRPWILPRP | -0.00158
RRIRTRPPRLPRPRPRPCAEPRP | -0.11
RRIRVRPPRLPRPRPRPFGMPRP | -0.0877
RRIRNRPPRLPRPRPRPERCPRP | 0.0334
RRIRMRPPRLPRPRPRPSVEPRP | 0.227
RRIRHRPPRLPRPRPRPWAQPRP | 0.0333
RRIRKRPPRLPRPRPRPHAVPRP | 0.132
RRIRCRPPRLPRPRPRPFGTPRP | -0.256
RRIRWRPPRLPRPRPRPNEIPRP | 0.0563
RRIRPRPPRLPRPRPRPTMAPRP | 0.502
RRIRNRPPRLPRPRPRPECLPRP | 0.254
RRIRKRPPRLPRPRPRPVGLPRP | 0.174
RRIRARPPRLPRPRPRPGKVPRP | 0.0119
RRIRVRPPRLPRPRPRPITWPRP | -0.182
RRIRTRPPRLPRPRPRPCNKPRP | -0.121
RRIRHRPPRLPRPRPRPIIPPRP | -0.197

Sequence | shrunken log2 fold change
RRIRPRPPRLPRPRPRPWHIPRP | -0.0921
RRIRRRPPRLPRPRPRPMRVPRP | 0.93
RRIRMRPPRLPRPRPRPKDMPRP | 0.0907
RRIRMRPPRLPRPRPRPPNHPRP | 0.206
RRIRDRPPRLPRPRPRPYNHPRP | -0.704
RRIRLRPPRLPRPRPRPRYGPRP | -0.0186
RRIRARPPRLPRPRPRPNLGPRP | 0.0306
RRIRQRPPRLPRPRPRPLMEPRP | -0.17
RRIRKRPPRLPRPRPRPIWPPRP | 0.345
RRIRYRPPRLPRPRPRPMITPRP | -0.386
RRIRSRPPRLPRPRPRPGFVPRP | 0.287
RRIRRRPPRLPRPRPRPIAKPRP | 0.252
RRIRQRPPRLPRPRPRPCACPRP | 0.0128
RRIRYRPPRLPRPRPRPHGMPRP | -0.922
RRIRHRPPRLPRPRPRPKWNPRP | -0.206
RRIRNRPPRLPRPRPRPPWSPRP | -0.294
RRIRSRPPRLPRPRPRPASSPRP | -0.201
RRIRMRPPRLPRPRPRPRPAPRP | 1.51
RRIRLRPPRLPRPRPRPGTAPRP | 0.362
RRIRPRPPRLPRPRPRPQFCPRP | -0.153
RRIRWRPPRLPRPRPRPSYHPRP | -0.568
RRIRYRPPRLPRPRPRPMERPRP | 0.0776
RRIRIRPPRLPRPRPRPKRGPRP | 0.2
RRIRIRPPRLPRPRPRPIEMPRP | -0.00843
RRIRPRPPRLPRPRPRPCMSPRP | -0.0701

Sequence | shrunken log2 fold change
RRIRGRPPRLPRPRPRPNVDPRP | 0.715
RRIRQRPPRLPRPRPRPFFVPRP | -0.0254
RRIRMRPPRLPRPRPRPPGKPRP | 0.978
RRIRCRPPRLPRPRPRPFEKPRP | -0.0689
RRIRQRPPRLPRPRPRPMLEPRP | 0.0533
RRIRCRPPRLPRPRPRPHYAPRP | -0.299
RRIRARPPRLPRPRPRPSRLPRP | 0.487
RRIRIRPPRLPRPRPRPQSFPRP | 0.0784
RRIRYRPPRLPRPRPRPQLPPRP | -0.0333
RRIRVRPPRLPRPRPRPLKIPRP | -0.0769
RRIRFRPPRLPRPRPRPRTPPRP | 0.534
RRIRPRPPRLPRPRPRPDGWPRP | 0.354
RRIRFRPPRLPRPRPRPHWRPRP | 0.121
RRIRRRPPRLPRPRPRPCWHPRP | -0.0148
RRIRKRPPRLPRPRPRPLYFPRP | -0.271
RRIRHRPPRLPRPRPRPPTSPRP | -0.128
RRIRCRPPRLPRPRPRPRNQPRP | -0.0402
RRIRSRPPRLPRPRPRPMFAPRP | 0.154
RRIRVRPPRLPRPRPRPVTSPRP | -0.558
RRIRWRPPRLPRPRPRPRRDPRP | 0.243
RRIRARPPRLPRPRPRPRIKPRP | -0.00918
RRIRDRPPRLPRPRPRPPVEPRP | -0.0332
RRIRYRPPRLPRPRPRPSYLPRP | -1.08
RRIRHRPPRLPRPRPRPEHFPRP | -0.00153
RRIRQRPPRLPRPRPRPLIPPRP | 0.114

Sequence | shrunken log2 fold change
RRIRQRPPRLPRPRPRPSKFPRP | -0.246
RRIRPRPPRLPRPRPRPWTPPRP | 0.0256
RRIRNRPPRLPRPRPRPPDNPRP | -0.146
RRIRERPPRLPRPRPRPRAFPRP | 0.189
RRIRGRPPRLPRPRPRPQDMPRP | 0.0811
RRIRGRPPRLPRPRPRPNGYPRP | -0.00669
RRIRGRPPRLPRPRPRPKLSPRP | -0.0523
RRIRTRPPRLPRPRPRPSHRPRP | -0.463
RRIRERPPRLPRPRPRPSYRPRP | 3.5
RRIRCRPPRLPRPRPRPHSNPRP | -0.625
RRIRFRPPRLPRPRPRPTHYPRP | -0.0275
RRIRTRPPRLPRPRPRPEYPPRP | -0.449
RRIRCRPPRLPRPRPRPSRAPRP | 0.113
RRIRKRPPRLPRPRPRPYRLPRP | -0.212
RRIRFRPPRLPRPRPRPRCMPRP | -0.124
RRIRWRPPRLPRPRPRPPCAPRP | 0.563
RRIRNRPPRLPRPRPRPTVAPRP | 0.351
RRIRTRPPRLPRPRPRPSEEPRP | 0.0771
RRIRVRPPRLPRPRPRPNTPPRP | -0.0576
RRIRHRPPRLPRPRPRPFPQPRP | 3.88
RRIRDRPPRLPRPRPRPRPNPRP | 0.323
RRIRERPPRLPRPRPRPDGMPRP | -0.0237
RRIRVRPPRLPRPRPRPFYEPRP | -0.453
RRIRMRPPRLPRPRPRPMEDPRP | 0.0119
RRIRMRPPRLPRPRPRPDLEPRP | 1.54
